Experimental data taken from patent publication US20210388087A1 (Chugai, published 2021).
Positions count from the first letter of the chain named. Names and notes keep the numbering of the source.

T1: Human CD3eg linker (human)
T1 construct: Single chain: epsilon and gamma subunits of human CD3 joined by a 29-mer linker, Flag-tag at the C-terminus; also called recombinant human CD3
T1 chain: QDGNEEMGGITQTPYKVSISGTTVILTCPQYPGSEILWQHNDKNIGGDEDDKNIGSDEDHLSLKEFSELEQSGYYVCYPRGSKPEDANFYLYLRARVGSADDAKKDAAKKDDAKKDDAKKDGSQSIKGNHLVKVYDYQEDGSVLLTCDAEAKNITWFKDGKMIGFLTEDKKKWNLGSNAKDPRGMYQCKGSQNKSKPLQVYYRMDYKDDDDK

B1: H183/L072 VH A56I (antibody, name in Kabat numbering, V domains shown)
VH: QVQLVESGGGLVQPGRSLRLSCAASGFTFSNAWMHWVRQAPGKGLEWVAQIKDKGNAYIAYYAPSVKGRFTISRDDSKNSIYLQMNSLKTEDTAVYYCHYVHYASASTVLPAFGVDAWGQGTTVTVSS
VL: DIVMTQSPLSLPVTPGEPASISCQASQELVHMNRNTYLHWYQQKPGQAPRLLIYKVSNRFPGVPDRFSGSGSGTDFTLKISRVEAEDVGVYYCAQGTSVPFTFGQGTKLEIK
B2: H183/L072 VH A57N (antibody, name in Kabat numbering, V domains shown)
VH: B1 VH with I59A, A60N
VL: B1 VL
B3: H183/L072 VH A57G (antibody, name in Kabat numbering, V domains shown)
VH: B1 VH with I59A, A60G
VL: B1 VL
B4: H183/L072 VH A56Y (antibody, name in Kabat numbering, V domains shown)
VH: B1 VH with I59Y
VL: B1 VL
B5: H183/L072 VH A57D (antibody, name in Kabat numbering, V domains shown)
VH: B1 VH with I59A, A60D
VL: B1 VL
B6: H183/L072 VH A56R (antibody, name in Kabat numbering, V domains shown)
VH: B1 VH with I59R
VL: B1 VL
B7: H183/L072 VH A60M (antibody, name in Kabat numbering, V domains shown)
VH: B1 VH with I59A, A63M
VL: B1 VL
B8: H183/L072 VH A57L (antibody, name in Kabat numbering, V domains shown)
VH: B1 VH with I59A, A60L
VL: B1 VL
B9: H183/L072 VH A57V (antibody, name in Kabat numbering, V domains shown)
VH: B1 VH with I59A, A60V
VL: B1 VL
B10: H183/L072 VH A60H (antibody, name in Kabat numbering, V domains shown)
VH: B1 VH with I59A, A63H
VL: B1 VL
B11: H183/L072 VH A57Y (antibody, name in Kabat numbering, V domains shown)
VH: B1 VH with I59A, A60Y
VL: B1 VL
B12: H183/L072 VH A57H (antibody, name in Kabat numbering, V domains shown)
VH: B1 VH with I59A, A60H
VL: B1 VL
B13: H183/L072 VH A57T (antibody, name in Kabat numbering, V domains shown)
VH: B1 VH with I59A, A60T
VL: B1 VL
B14: H183/L072 VH A56M (antibody, name in Kabat numbering, V domains shown)
VH: B1 VH with I59M
VL: B1 VL
B15: H183/L072 VH A57P (antibody, name in Kabat numbering, V domains shown)
VH: B1 VH with I59A, A60P
VL: B1 VL
B16: H183/L072 VH A60F (antibody, name in Kabat numbering, V domains shown)
VH: B1 VH with I59A, A63F
VL: B1 VL
B17: H183/L072 VH A60K (antibody, name in Kabat numbering, V domains shown)
VH: B1 VH with I59A, A63K
VL: B1 VL
B18: H183/L072 VH A56W (antibody, name in Kabat numbering, V domains shown)
VH: B1 VH with I59W
VL: B1 VL
B19: H183/L072 VH A57W (antibody, name in Kabat numbering, V domains shown)
VH: B1 VH with I59A, A60W
VL: B1 VL
B20: H183/L072 VH A57I (antibody, name in Kabat numbering, V domains shown)
VH: B1 VH with I59A, A60I
VL: B1 VL
B21: H183/L072 VH A60N (antibody, name in Kabat numbering, V domains shown)
VH: B1 VH with I59A, A63N
VL: B1 VL
B22: H183/L072 VH A60G (antibody, name in Kabat numbering, V domains shown)
VH: B1 VH with I59A, A63G
VL: B1 VL
B23: H183/L072 VH A57Q (antibody, name in Kabat numbering, V domains shown)
VH: B1 VH with I59A, A60Q
VL: B1 VL
B24: H183/L072 VH A56L (antibody, name in Kabat numbering, V domains shown)
VH: B1 VH with I59L
VL: B1 VL
B25: H183/L072 VH A57E (antibody, name in Kabat numbering, V domains shown)
VH: B1 VH with I59A, A60E
VL: B1 VL
B26: H183/L072 VH A60P (antibody, name in Kabat numbering, V domains shown)
VH: B1 VH with I59A, A63P
VL: B1 VL
B27: H183/L072 VH A56P (antibody, name in Kabat numbering, V domains shown)
VH: B1 VH with I59P
VL: B1 VL
B28: H183/L072 VH A57M (antibody, name in Kabat numbering, V domains shown)
VH: B1 VH with I59A, A60M
VL: B1 VL
B29: H183/L072 VH A60E (antibody, name in Kabat numbering, V domains shown)
VH: B1 VH with I59A, A63E
VL: B1 VL
B30: H183/L072 VH A57K (antibody, name in Kabat numbering, V domains shown)
VH: B1 VH with I59A, A60K
VL: B1 VL
B31: H183/L072 VH A56N (antibody, name in Kabat numbering, V domains shown)
VH: B1 VH with I59N
VL: B1 VL
B32: H183/L072 VH A56V (antibody, name in Kabat numbering, V domains shown)
VH: B1 VH with I59V
VL: B1 VL
B33: H183/L072 VH A57R (antibody, name in Kabat numbering, V domains shown)
VH: B1 VH with I59A, A60R
VL: B1 VL
B34: H183/L072 VH A60I (antibody, name in Kabat numbering, V domains shown)
VH: B1 VH with I59A, A63I
VL: B1 VL
B35: H183/L072 VH A57S (antibody, name in Kabat numbering, V domains shown)
VH: B1 VH with I59A, A60S
VL: B1 VL
B36: H183/L072 VH A60D (antibody, name in Kabat numbering, V domains shown)
VH: B1 VH with I59A, A63D
VL: B1 VL
B37: H183/L072 VH A56Q (antibody, name in Kabat numbering, V domains shown)
VH: B1 VH with I59Q
VL: B1 VL
B38: H183/L072 VH A56T (antibody, name in Kabat numbering, V domains shown)
VH: B1 VH with I59T
VL: B1 VL
B39: H183/L072 VH A57F (antibody, name in Kabat numbering, V domains shown)
VH: B1 VH with I59A, A60F
VL: B1 VL
B40: H183/L072 VH A60L (antibody, name in Kabat numbering, V domains shown)
VH: B1 VH with I59A, A63L
VL: B1 VL
B41: H183/L072 VH A56K (antibody, name in Kabat numbering, V domains shown)
VH: B1 VH with I59K
VL: B1 VL
B42: H183/L072 VH A56S (antibody, name in Kabat numbering, V domains shown)
VH: B1 VH with I59S
VL: B1 VL

Biological target: T1, Human CD3eg linker
Assay: Biacore SPR, vs template H183/L072

B1 was tested. Which “fold change of affinity” value did it give?
Its value is 0.6 fold.

Which “fold change of affinity” value does the source give for B2 here?
The value was 0.7 fold.

With B3 as the binder, how does the “fold change of affinity” value read?
The value was 0.7 fold.

B4 was tested. Which “fold change of affinity” value did it give?
Its value is 0.7 fold.

With B5 as the binder, how does the “fold change of affinity” value read?
Its value is 1 fold.

How did the “fold change of affinity” value turn out when B6 was run?
Its value is 1.3 fold.

With B7 as the binder, how does the “fold change of affinity” value read?
Its value is 1 fold.

Which “fold change of affinity” value does the source give for B8 here?
The value was 0.5 fold.

B9 was tested. Which “fold change of affinity” value did it give?
Its value is 0.9 fold.

B10 was tested. Which “fold change of affinity” value did it give?
The value was 1.1 fold.

How did the “fold change of affinity” value turn out when B11 was run?
The value was 0.4 fold.

Which “fold change of affinity” value does the source give for B12 here?
Its value is 0.9 fold.

B13 was tested. Which “fold change of affinity” value did it give?
The value was 1.3 fold.

B14 was tested. Which “fold change of affinity” value did it give?
The value was 1 fold.

B15 was tested. Which “fold change of affinity” value did it give?
The value was 0.9 fold.

How did the “fold change of affinity” value turn out when B16 was run?
Its value is 0.7 fold.

With B17 as the binder, how does the “fold change of affinity” value read?
The value was 0.9 fold.

With B18 as the binder, how does the “fold change of affinity” value read?
Its value is 0.8 fold.

B19 was tested. Which “fold change of affinity” value did it give?
The value was 0.4 fold.

How did the “fold change of affinity” value turn out when B20 was run?
The value was 0.6 fold.

B21 was tested. Which “fold change of affinity” value did it give?
The value was 1 fold.

For B22, which “fold change of affinity” value is on record?
The value was 1.9 fold.

B23 was tested. Which “fold change of affinity” value did it give?
Its value is 1.1 fold.

For B24, which “fold change of affinity” value is on record?
The value was 0.7 fold.

B25 was tested. Which “fold change of affinity” value did it give?
Its value is 1 fold.

With B26 as the binder, how does the “fold change of affinity” value read?
Its value is 0.5 fold.

Which “fold change of affinity” value does the source give for B27 here?
The value was 0.3 fold.

With B28 as the binder, how does the “fold change of affinity” value read?
Its value is 0.9 fold.

Which “fold change of affinity” value does the source give for B29 here?
Its value is 1.1 fold.

For B30, which “fold change of affinity” value is on record?
Its value is 1.5 fold.

For B31, which “fold change of affinity” value is on record?
Its value is 0.9 fold.

With B32 as the binder, how does the “fold change of affinity” value read?
Its value is 0.7 fold.

For B33, which “fold change of affinity” value is on record?
The value was 1.3 fold.

For B34, which “fold change of affinity” value is on record?
Its value is 0.6 fold.

For B35, which “fold change of affinity” value is on record?
The value was 1.1 fold.

For B36, which “fold change of affinity” value is on record?
The value was 1.3 fold.

For B37, which “fold change of affinity” value is on record?
The value was 1 fold.

B38 was tested. Which “fold change of affinity” value did it give?
The value was 0.7 fold.

For B39, which “fold change of affinity” value is on record?
The value was 0.4 fold.

Which “fold change of affinity” value does the source give for B40 here?
Its value is 1.2 fold.

B41 was tested. Which “fold change of affinity” value did it give?
Its value is 1.3 fold.

B42 was tested. Which “fold change of affinity” value did it give?
The value was 0.9 fold.
